The values that follow come from patent publication US20240409935A1 (UNM RAINFOREST INNOVATIONS, published 2024).

B3: ALIX (cellular) (other, UniProt Q8WUM4 2-868, looked up)
chain: ATFISVQLKKTSEVDLAKPLVKFIQQTYPSGGEEQAQYCRAAEELSKLRRAAVGRPLDKHEGALETLLRYYDQICSIEPKFPFSENQICLTFTWKDAFDKGSLFGGSVKLALASLGYEKSCVLFNCAALASQIAAEQNLDNDEGLKIAAKHYQFASGAFLHIKETVLSALSREPTVDISPDTVGTLSLIMLAQAQEVFFLKATRDKMKDAIIAKLANQAADYFGDAFKQCQYKDTLPKEVFPVLAAKHCIMQANAEYHQSILAKQQKKFGEEIARLQHAAELIKTVASRYDEYVNVKDFSDKINRALAAAKKDNDFIYHDRVPDLKDLDPIGKATLVKSTPVNVPISQKFTDLFEKMVPVSVQQSLAAYNQRKADLVNRSIAQMREATTLANGVLASLNLPAAIEDVSGDTVPQSILTKSRSVIEQGGIQTVDQLIKELPELLQRNREILDESLRLLDEEEATDNDLRAKFKERWQRTPSNELYKPLRAEGTNFRTVLDKAVQADGQVKECYQSHRDTIVLLCKPEPELNAAIPSANPAKTMQGSEVVNVLKSLLSNLDEVKKEREGLENDLKSVNFDMTSKFLTALAQDGVINEEALSVTELDRVYGGLTTKVQESLKKQEGLLKNIQVSHQEFSKMKQSNNEANLREEVLKNLATAYDNFVELVANLKEGTKFYNELTEILVRFQNKCSDIVFARKTERDELLKDLQQSIAREPSAPSIPTPAYQSSPAGGHAPTPPTPAPRTMPPTKPQPPARPPPPVLPANRAPSATAPSPVGAGTAAPAPSQTPGSAPPPQAQGPPYPTYPGYPGYCQMPMPMGYNPYAYGQYNMPYPPVYHQSPGQAPYPGPQQPSYPFPQPPQQSYYPQQ
notes: also called PDCD6IP
B6: endogenous PKR (enzyme, UniProt P19525 2-551, looked up)
chain: AGDLSAGFFMEELNTYRQKQGVVLKYQELPNSGPPHDRRFTFQVIIDGREFPEGEGRSKKEAKNAAAKLAVEILNKEKKAVSPLLLTTTNSSEGLSMGNYIGLINRIAQKKRLTVNYEQCASGVHGPEGFHYKCKMGQKEYSIGTGSTKQEAKQLAAKLAYLQILSEETSVKSDYLSSGSFATTCESQSNSLVTSTLASESSSEGDFSADTSEINSNSDSLNSSSLLMNGLRNNQRKAKRSLAPRFDLPDMKETKYTVDKRFGMDFKEIELIGSGGFGQVFKAKHRIDGKTYVIKRVKYNNEKAEREVKALAKLDHVNIVHYNGCWDGFDYDPETSDDSLESSDYDPENSKNSSRSKTKCLFIQMEFCDKGTLEQWIEKRRGEKLDKVLALELFEQITKGVDYIHSKKLIHRDLKPSNIFLVDTKQVKIGDFGLVTSLKNDGKRTRSKGTLRYMSPEQISSQDYGKEVDLYALGLILAELLHVCDTAFETSKFFTDLRDGIISDIFDKKEKTLLQKLLSKKPEDRPNTSEILRTLTVWKKSPEKNERHTC
notes: also called EIF2AK2; Protein Kinase R

The target of one experiment is T1, FLAG-PKR (UniProt P19525 1-551).
T1 construct: not shown: FLAG tag
Description: co-IP of FLAG-PKR and PACT in HEK293T cells.

For another experiment, the target named is T2, FLAG-eIF2α (UniProt P05198 1-315).
T2 construct: not shown: FLAG tag
T2 sequence (P05198 whole entry): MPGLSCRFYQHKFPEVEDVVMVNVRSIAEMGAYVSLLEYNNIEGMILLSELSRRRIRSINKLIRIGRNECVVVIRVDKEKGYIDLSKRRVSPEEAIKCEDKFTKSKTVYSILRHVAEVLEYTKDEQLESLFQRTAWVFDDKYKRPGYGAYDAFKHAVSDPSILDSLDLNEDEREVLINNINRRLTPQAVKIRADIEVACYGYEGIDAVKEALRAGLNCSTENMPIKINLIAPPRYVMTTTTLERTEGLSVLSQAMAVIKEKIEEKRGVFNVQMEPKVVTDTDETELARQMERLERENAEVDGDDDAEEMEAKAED
Briefly: co-IP with anti-FLAG from HEK293T cells, 1 mM LLOMe 30 min.

For experiment [1], the target named is T3, FLAG-ALIX (full length) (UniProt Q8WUM4 1-868).
T3 construct: also called full-length ALIX; not shown: FLAG tag
T3 sequence (looked up): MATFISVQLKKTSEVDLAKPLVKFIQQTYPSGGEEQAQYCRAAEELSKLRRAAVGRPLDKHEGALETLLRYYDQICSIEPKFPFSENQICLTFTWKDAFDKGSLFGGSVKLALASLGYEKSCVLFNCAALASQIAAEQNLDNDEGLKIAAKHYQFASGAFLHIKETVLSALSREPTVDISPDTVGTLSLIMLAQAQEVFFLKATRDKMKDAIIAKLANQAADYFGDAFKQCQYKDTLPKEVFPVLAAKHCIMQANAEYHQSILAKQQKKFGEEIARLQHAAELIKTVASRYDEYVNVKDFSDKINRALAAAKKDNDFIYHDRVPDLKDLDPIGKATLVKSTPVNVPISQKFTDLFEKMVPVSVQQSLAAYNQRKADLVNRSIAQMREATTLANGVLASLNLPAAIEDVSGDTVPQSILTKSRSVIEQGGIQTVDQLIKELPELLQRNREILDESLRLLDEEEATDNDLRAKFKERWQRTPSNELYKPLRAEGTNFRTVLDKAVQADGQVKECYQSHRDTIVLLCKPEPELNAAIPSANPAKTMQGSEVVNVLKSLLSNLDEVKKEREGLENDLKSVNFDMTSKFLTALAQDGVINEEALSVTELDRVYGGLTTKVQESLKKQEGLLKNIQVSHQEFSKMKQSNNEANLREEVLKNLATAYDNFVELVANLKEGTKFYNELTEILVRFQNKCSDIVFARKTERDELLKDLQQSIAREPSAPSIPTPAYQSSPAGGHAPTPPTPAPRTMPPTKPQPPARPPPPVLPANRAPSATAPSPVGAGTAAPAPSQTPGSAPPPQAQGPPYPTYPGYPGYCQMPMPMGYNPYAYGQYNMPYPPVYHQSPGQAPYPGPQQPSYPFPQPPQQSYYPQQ
The description is as above.

The experiment “ALIX (cellular)” concerns the target B3. Briefly: confocal microscopy of GFP-PKR/PACT and ALIX in U2OS cells, 2 mM LLOMe.
The target in the experiment “endogenous PKR” is B6. Briefly: co-IP with anti-GFP from HEK293T cells transfected with FLAG or FLAG-ALIX, 1 mM LLOMe 30 min.
A further experiment deals with T4, APEX2-eIF2α (UniProt P05198 1-315).
T4 construct: also called APEX2-eIF2α fusion
T4 sequence (P05198 whole entry, the tested form may be a part): as the sequence (P05198 whole entry) above
Briefly: APEX2-eIF2α proximity biotinylation, LC/MS/MS, LLOMe against control.

For experiment [2], the target named is T3, FLAG-ALIX (full length). Description: co-IP with anti-FLAG from HEK293T cells expressing FLAG tagged ALIX constructs and Myc-PKR.

Bounds are passed on as bounds.

B1: endogenous PACT (other, UniProt O75569 1-313, looked up)
chain: MSQSRHRAEAPPLEREDSGTFSLGKMITAKPGKTPIQVLHEYGMKTKNIPVYECERSDVQIHVPTFTFRVTVGDITCTGEGTSKKLAKHRAAEAAINILKANASICFAVPDPLMPDPSKQPKNQLNPIGSLQELAIHHGWRLPEYTLSQEGGPAHKREYTTICRLESFMETGKGASKKQAKRNAAEKFLAKFSNISPENHISLTNVVGHSLGCTWHSLRNSPGEKINLLKRSLLSIPNTDYIQLLSEIAKEQGFNITYLDIDELSANGQYQCLAELSTSPITVCHGSGISCGNAQSDAAHNALQYLKIIAERK
notes: also called PRKRA
Turning to B1, the binding result with FLAG-PKR, with FLAG-eIF2α and with FLAG-ALIX (full length) [1] was “binds” in each case.

B2: GFP-PACT (other, UniProt O75569 1-313, looked up)
chain: MSQSRHRAEAPPLEREDSGTFSLGKMITAKPGKTPIQVLHEYGMKTKNIPVYECERSDVQIHVPTFTFRVTVGDITCTGEGTSKKLAKHRAAEAAINILKANASICFAVPDPLMPDPSKQPKNQLNPIGSLQELAIHHGWRLPEYTLSQEGGPAHKREYTTICRLESFMETGKGASKKQAKRNAAEKFLAKFSNISPENHISLTNVVGHSLGCTWHSLRNSPGEKINLLKRSLLSIPNTDYIQLLSEIAKEQGFNITYLDIDELSANGQYQCLAELSTSPITVCHGSGISCGNAQSDAAHNALQYLKIIAERK
notes: not shown: GFP
For B2, the binding result with ALIX (cellular) and with endogenous PKR was “binds” throughout.

Turning to B3, the “fold increase in association with eIF2α (LLOMe/CTR)” value with APEX2-eIF2α is greater than 10 fold.

B4: Myc-PKR (enzyme, UniProt P19525 1-551, looked up)
chain: MAGDLSAGFFMEELNTYRQKQGVVLKYQELPNSGPPHDRRFTFQVIIDGREFPEGEGRSKKEAKNAAAKLAVEILNKEKKAVSPLLLTTTNSSEGLSMGNYIGLINRIAQKKRLTVNYEQCASGVHGPEGFHYKCKMGQKEYSIGTGSTKQEAKQLAAKLAYLQILSEETSVKSDYLSSGSFATTCESQSNSLVTSTLASESSSEGDFSADTSEINSNSDSLNSSSLLMNGLRNNQRKAKRSLAPRFDLPDMKETKYTVDKRFGMDFKEIELIGSGGFGQVFKAKHRIDGKTYVIKRVKYNNEKAEREVKALAKLDHVNIVHYNGCWDGFDYDPETSDDSLESSDYDPENSKNSSRSKTKCLFIQMEFCDKGTLEQWIEKRRGEKLDKVLALELFEQITKGVDYIHSKKLIHRDLKPSNIFLVDTKQVKIGDFGLVTSLKNDGKRTRSKGTLRYMSPEQISSQDYGKEVDLYALGLILAELLHVCDTAFETSKFFTDLRDGIISDIFDKKEKTLLQKLLSKKPEDRPNTSEILRTLTVWKKSPEKNERHTC
notes: not shown: Myc tag
On to B4, for which the binding result with FLAG-ALIX (full length) [2] was “binds”.

B5: GFP-PKR (enzyme, UniProt P19525 1-551, looked up)
chain: MAGDLSAGFFMEELNTYRQKQGVVLKYQELPNSGPPHDRRFTFQVIIDGREFPEGEGRSKKEAKNAAAKLAVEILNKEKKAVSPLLLTTTNSSEGLSMGNYIGLINRIAQKKRLTVNYEQCASGVHGPEGFHYKCKMGQKEYSIGTGSTKQEAKQLAAKLAYLQILSEETSVKSDYLSSGSFATTCESQSNSLVTSTLASESSSEGDFSADTSEINSNSDSLNSSSLLMNGLRNNQRKAKRSLAPRFDLPDMKETKYTVDKRFGMDFKEIELIGSGGFGQVFKAKHRIDGKTYVIKRVKYNNEKAEREVKALAKLDHVNIVHYNGCWDGFDYDPETSDDSLESSDYDPENSKNSSRSKTKCLFIQMEFCDKGTLEQWIEKRRGEKLDKVLALELFEQITKGVDYIHSKKLIHRDLKPSNIFLVDTKQVKIGDFGLVTSLKNDGKRTRSKGTLRYMSPEQISSQDYGKEVDLYALGLILAELLHVCDTAFETSKFFTDLRDGIISDIFDKKEKTLLQKLLSKKPEDRPNTSEILRTLTVWKKSPEKNERHTC
notes: not shown: GFP
For B5, the binding result with ALIX (cellular) is “binds”.

In the case of B6, the binding result in the experiment with FLAG-ALIX (full length) [1] was “binds”.
